This is an account of results in article PMC5131902, “Pheromone Recognition and Selectivity by ComR Proteins among Streptococcus Species” (PLoS Pathogens, 2016).

Usually Kd stands for the equilibrium constant for the complex coming apart. Read a high Kd as weaker binding. As usually defined, the stoichiometry N is the number of molecules, sites or subunits per partner or assembly. Usually EC50 stands for the midpoint of the concentration-response curve.

Assay [1] deals with S. agalactiae 2603 v/r ComR. Kind of assay: S. mutans ES1 test-bed PcomS::luxAB luciferase reporter assay. The settings on record: synthetic peptides titrated to ES1 reporter strain carrying ComR S. agalactiae 2603. Type of assay: cell-based. An excerpt: (§1) The entire known SigX regulon, as well as the proximal transcriptional regulator of sigX, ComR, is conserved throughout the Mutans, Bovis, and Pyogenic groups (Fig 1, top). Additionally, within these groups, the mature form of the peptide pheromone ComS contains a conserved double-tryptophan motif (‘WW’) (Fig 1, bottom). This led us to ask whether the putative ComRs encoded by members of these groups could respond to cognate and heterologous XIPs to activate comS and sigX transcription. To test this possibility, we developed a strain that would allow for control of the ComR and XIP variants present within the system. […] Additionally, when a multi-copy plasmid carrying wild-type comR was provided to a ΔcomR strain, the ability to naturally transform exogenous genomic DNA was rescued. With these observations in mind, we created an S. mutans UA159 ‘test bed’ strain, ES1, in which the endogenous comRS locus was replaced with a spectinomycin-resistance cassette (Fig 2A). Because this strain contains neither comS nor comR, it is unable to produce or respond to XIP pheromones. A plasmid was used as a vehicle to provide different comR variants, under control of the native promoter, with adjoining comR-comS intergenic regions containing ComR binding sites and the comS promoter. The plasmid also contains the bacterial luciferase genes, luxAB, under transcriptional control of the cloned comS promoter. Clones harboring each comR-variant plasmid were constructed, grown, and treated with titrations of synthetic XIP peptides. Since productive interaction between ComR and XIP results in transcriptional activation of the comS promoter, we could test the functionality of ComR–XIP interactions by assessing the specific bioluminescent activity of each culture. To ensure that the test bed recapitulated observed results seen in wild-type S. mutans UA159, we assessed the UA159 ComR with serial dilutions of the cognate XIP-C7 (the C-terminal seven amino acids of ComS) and measured bioluminescence levels (Fig 2B).
(§2) Predicted XIP peptide sequences were determined by identifying open reading frames downstream from the putative ComR gene by using NCBI BLAST to identify UA159 ComR homologues. One to three different lengths of peptide from each species were ordered from NeoScientific (Woburn, MA). Peptide crude extracts (purity 45–75%) were dissolved in DMSO (Fisher Scientific, Hampton, NH) at a concentration of 1 mM based upon the specific purity and stored at -20° C.
(§3) Starter cultures, from cultures stored in 20% glycerol at -80° C, of each ComR reporter strain were diluted to an OD600 of 0.05 in CDM + erm and incubated at 37° C until an OD^600 of ~0.1. 190 uL aliquots of reporter strain cell culture were added to wells within a 96-well (Greiner Bio-One; Monroe, NC) lidded, clear, flat-bottom plate, each containing 10 μL of DMSO or a 5x-serial dilution of the peptide of interest in DMSO (final concentration of 5% DMSO/well). Concentrations tested for each peptide were 1.3 nM, 6.4 nM, 38.6 nM, 231.5 nM, 1388.9 nM, […], and 50 μM. […] Prepared plates were lidded and sealed with Parafilm (Bemis, Oshkosh, WI) before incubation at 37° C, with continuous shaking, in a Synergy 2 plate reader (Biotek). OD600 and luminescence readings were measured every 15 min. over a 4-hr period. The maximum RLU measurement per well, between 60–240 minutes was recorded using Gen5 data analysis software. […]

Assay [2] has as its target ComR S. suis N220A (Streptococcus suis 05ZYH33). The assay can be described thus: ITC; 300 μM XIP injected into 20 μM ComR; VP-ITC, 25°C; 20 mM Tris pH 7.5, 100 mM NaCl, 1 mM β-ME; one-site model.
For assay [3], the target named is ComR S. suis 05ZYH33 (residues 1–304), wild-type (Streptococcus suis 05ZYH33). Described as above.
For assay [4] the target is unchanged.
Assay [5] addresses ComR S. dysgalactiae subsp. equisimilis ATCC35666 (Streptococcus dysgalactiae subsp. equisimilis ATCC35666).
The target in assay [6] is ComR S. bovis 83 (Streptococcus bovis Sbo 83).
In assay [7] the target is ComR S. bovis SboB (Streptococcus bovis SboB).
Assay [8] addresses ComR S. pyogenes MGAS5005 (Streptococcus pyogenes MGAS5005).
The target in another assay is S. mutans UA159 ComR (Streptococcus mutans serotype c, UniProt Q8DWI6). Kind of assay: S. mutans ES1 test-bed PcomS::luxAB luciferase reporter assay. Type of assay: cell-based.
Source text: as §1, §2, §3
Background: In a reporter assay the amount or activity of a reporter protein is the signal.

In a further assay the test system is S. suis S10 (serotype 2). Conditions: cited from earlier work. An excerpt:
One observed difference from published ComR/XIP behavior was for the two S. pyogenes strains used in our study, MGAS5005 (serotype M1) and MGAS315 (serotype M3).

Assay [9] concerns the target ComR S. mutans UA159 (Streptococcus mutans UA159).
Assay [10] has the same target. This is another data set of the same source.

Like-named read-outs stand apart in the source and are kept apart here. Ends that are not written are not given here.

On to “TGWWMLG [EBS2, designed XIP agonist of ComR S. agalactiae 2603, TGWWMLG]”, for which the “reporter induction of ComR S. agalactiae 2603 (maximum relative luciferase activity), in words” value in assay [1] is listed as “robust reporter induction”.
As for S. suis 05ZYH33 XIP-C7 (peptide), in [2], the Kd came to 13.7 µM, the dH is -7280 cal/mol and the stoichiometry N was 1.09. Moreover, in [3], the Kd stood at 0.862 µM, the dH was -13600 cal/mol and the stoichiometry N worked out at 0.96. In assay [4], this molecule showed an EC50 of P comS::luxAB luciferase activity in the S. mutans ES1 test bed of 93 nM.
As to “LDWWSLG [EBS1, designed XIP agonist of ComR S. agalactiae 2603, LDWWSLG]”, the “reporter induction of ComR S. agalactiae 2603 (maximum relative luciferase activity), in words” value in assay [1] is on record as “robust reporter induction”.
With “S. dysgalactiae subsp. equisimilis ATCC35666 XIP-C7 (peptide)”, in assay [5], the EC50 of P comS::luxAB luciferase activity in the S. mutans ES1 test bed stood at 15 µM and the increase in reporter activity at 50 μM XIP turned out to be 10 fold.
In assay [6], S. bovis 83 XIP-C7 (peptide) gave an EC50 of P comS::luxAB luciferase activity in the S. mutans ES1 test bed below 1 nM.
Take “TMGWWGL [NEM316 XIP, putative Type-II XIP of S. agalactiae strain NEM316, TMGWWGL]”: the “reporter induction of ComR S. agalactiae 2603 (maximum relative luciferase activity), in words” value in assay [1] is reported as “unable to activate”.
For S. bovis SboB XIP-C7 (peptide), the EC50 of P comS::luxAB luciferase activity in the S. mutans ES1 test bed in assay [7] was below 1 nM.
In the case of “ETEWWNVG [EBS3, designed XIP of eight residues for ComR S. agalactiae 2603, ETEWWNVG]”, in assay [1], the “reporter induction of ComR S. agalactiae 2603 (maximum relative luciferase activity), in words” value is on record as “did not elicit strong reporter activity”.
In the case of S. pyogenes MGAS5005 XIP-C8 (peptide), in assay [8], the EC50 of P comS::luxAB transcription in the S. mutans ES1 test bed came out at 250 nM and the increase of P comS::luxAB transcription at 50 μM XIP was determined as 25 fold.
As to GLDWWSL [UA159 C7], on S. mutans UA159 ComR, the EC50 was 0.17 nM.
In the case of GNWGTWVEE [XIP-C9], the “transformability upon addition of XIP length variant” value in the assay with S. suis S10 (serotype 2) is “highest transformability”.
In assay [8], S. pyogenes MGAS315 XIP-C8 (peptide) registered a P comS::luxAB transcription at 50 μM XIP, relative to the maximum with the cognate XIP of 25%.
For GLDWWSL [S. mutans UA159 XIP-C7], in assay [2], the Kd is 6.06 µM, the dH is -4260 cal/mol and the stoichiometry N stood at 0.95. In assay [3], this molecule yielded a Kd of 5.88 µM, a dH of -6010 cal/mol and a stoichiometry N of 1.03. For the same molecule, in [9], the EC50 of P comS::luxAB luciferase activity in the S. mutans ES1 test bed was 0.2 nM and the maximal induction of luciferase activity in the test bed, at 2 nM XIP amounted to 140 fold. In [10], the EC50 of P comS::luxAB luciferase activity in the S. mutans ES1 test bed is 88 nM.
